Assay results from the Human Domainome abundance scans (Beltran et al. 2025).

B1: SWI/SNF complex subunit SMARCC2, residues 599 to 641; numbered along this chain, Q8TAQ2 (parent)
chain: REWTEQETLLLLEALEMYKDDWNKVSEHVGSRTQDECILHFLR

Variants of: B1
Assay: abundance fitness (aPCA) (normalised: wild type 0, dead -1); higher = more abundant; growth selection in yeast, the domain comes from the species named
Conditions: Homo sapiens

Abundance fitness, by site and new letter:
K24: L 0.054, P -0.524, Q 0.046, T -0.005, C -0.148, H -0.139, E 0.154, R 0.064, M 0.259, W -0.351, V -0.389, A 0.124, S -0.081, N -0.501, D -0.366, F 0.058
H40: Q -0.052, G -0.178, D -0.173, I -0.431, T -0.27, S -0.383, Y 0.272, W -0.139, A -0.081, N -0.343, M -0.148, R 0.096, P -0.589, L -0.41, V -0.376
L42: D 0.726, A 0.334
E27: H -0.407, S -0.21, P -0.677, N -0.042, W -0.495, D -0.209, T -0.146, R -0.022, G -0.038, Q -0.244, V -0.515, L -0.473, C -0.379
C37: D -0.471, R -0.697, A -0.332, G -0.833, T -0.525, L -0.844, E -0.598, N -0.67, Q -0.2, W -0.924, K -0.328, P -0.708, F -0.361, S -0.428, V -0.134, H -0.353
R32: Y -0.426, K 0.207, E -0.472, H -0.374, T -0.49, G -0.727, M -0.202, V -0.523, P -1.36, F -0.417, Q -0.313, W -0.583, N -0.909, A -0.456, C -0.432, D -1.04, S -1.07
S31: L -0.49, V -0.218, N 0.057, A -0.019, G 0.054, P -0.434, E 0.12, F -0.411, W -0.024, Q 0.149, T 0.287, Y 0.015, R -0.219, M 0.042, D 0.06, H -0.085
G30: Q -0.668, L -0.546, W -0.832, S -0.143, N -0.164, E 0.092, M -0.341, C -0.064, R -0.211, A -0.057, T -0.031, Y -0.143, F -0.325, D -0.07, K -0.011, I -0.147, H -0.711
S26: R 0.219, I -0.449, W -0.517, V 0.071, A 0.303, Y -0.252, C -0.07, P -0.444, K 0.211, N -0.62, Q -0.449, G 0.084, F -0.709, M 0.199, L -0.27, T 0.115, E 0.081, H 0.095
D35: H 0.108, Y -0.486, K 0.047, T -0.213, F -0.284, R 0.027, Q 0.378, I -0.388, A 0.121, N 0.236, G 0.046, E -0.035, P 0.066, V -0.556, S 0.087, M 0.008
V29: H -0.931, C -0.635, A -0.695, M 0.092, D -0.714, F -0.668, Q -0.548, T -0.297, S -1.3, E -0.711, W -0.931, L -0.07, P -0.865, G -0.835, K -0.53, R -1.09
H28: G -0.341, N -0.853, A -0.381, C -0.376, Q -0.26, F -0.401, W -0.138, V -0.322, I -0.265, M -0.341, L -0.433, K -0.242, P -0.86, R -0.294, E -0.748, D -1.16, Y -0.225, T -0.256, S -0.747
F41: P 0.43, V -0.452, C -0.425, H 0.442, I -0.299, M 0.059, Y 0.185, Q 0.375, T 0.047, N 0.581, L -0.487, S 0.324, E 0.354, D 0.344, G 0.417, R 0.501
Q34: I -0.074, T 0.185, M -0.282, L -0.073, N 0.051, A -0.235, S 0.056, P 0.02, W -0.577, R 0.014, F -0.029, K 0.316, Y 0.03, D -0.048, C 0.104, V -0.018, H 0.058
V25: G -0.755, W -0.522, C 0.316, M 0.026, R -0.331, N -0.275, Y -0.798, H -0.578, P -0.823, F -0.349, D -0.478, S -0.528, I 0.235, Q -0.853
I38: L 0.12, D -0.015, M 0.151, H 0.415, C 0.203, W -0.24, R 0.428, S 0.224, T 0.26, N 0.274, V -0.019, A 0.149, G 0.401, F 0.023, P -0.367, E 0.351, K 0.347, Q 0.098, Y 0.077
L39: N 0.024, A 0.154, G 0.149, V -0.009, P -0.24, I -0.21, F -0.024, H 0.16, Y -0.108, Q 0.08, E 0.335, W -0.29, T 0.235, S 0.071, D 0.642, R 0.122
T33: G 0, Y -0.305, K 0.042, I -0.721, P -0.17, N 0.125, F -0.684, H -0.214, R 0.123, E -0.263, L -0.019, C -0.064, A 0.045, D 0.079
N23: P 0.17, Y -0.285, S 0.064, M 0.025, R 0.069, T 0.033, E 0.091, A 0.204, L 0.026, G 0.112, V 0.059, C 0.123, K 0.037, I -0.121, W -0.131, D 0.109, F 0.046, Q -0.081, H -0.009
E36: H -0.196, W -0.855, V -1.15, Q 0.08, D -0.003, P -0.783, M -0.897, K -0.507, L -1.02, G -0.844, F -0.523, A -0.446, R -0.873
D21: S -0.057, V -0.496, P -0.919, Q -0.122, T -0.336, W -0.493, N -0.314, Y -0.541, R -0.192
W22: I -0.535, G -0.615, S -0.91, F -0.389, C -0.792, M -0.412, R -0.833, D -0.339, N -0.759, A -0.791, T -0.433, K -0.367, V -0.529, Q -0.887, Y -0.115, H -0.231
